Reference: patent US20020155563A1 (Bristol-Myers Squibb, published 2002)

Target: T1, Grb2 (adapter protein, from Jurkat T cell lysates) (human, UniProt P62993 1-217)
T1 construct: also called adapter protein Grb2
Test: pull-down from Jurkat lysates on Talon beads, anti-Grb2 immunoblot
Method: In this Example, experiments were performed to determine if human MIST provided by the present invention associated with signaling proteins critical for cell activation. For this purpose, cell lysates from unstimulated Jurkat T cells, or TCR/CD3-activated Jurkat T cells, were prepared and precipitated with Talon resin beads (Clontech, Palo Alto, Calif.) preloaded with equivalent amounts (5 μg total) of His-MIST fusion proteins. The phosphotyrosine content of precipitated proteins was analyzed by SDS-PAGE followed by Western blotting with an anti-phosphotyrosine specific antibody (4G10, UBI, Hauppague, N.Y.).
More specifically, Jurkat T cells (10⁷/lane) were unstimulated, or were stimulated with monoclonal antibody (MoAb) to the T-cell receptor TCR/CD3 (G19-4-BMS) for 5 minutes at 37° C., and then lysed in 1% NP40-containing lysis buffer and incubated with Talon beads preloaded with equivalent amounts (50 μl of slurry resin) of the indicated His-MIST fusion proteins. Reactants and immunoprecipitates were subjected to SDS-PAGE on 4-20% gradient gels. […] Blot stripping was performed and the membrane was subsequently re-probed with anti-Grb2 MoAb (Santa Cruz Biotechnology, Inc., Santa Cruz, Calif.), anti-Cbl MoAb (Santa Cruz Biotechnology, Inc., Santa Cruz, Calif.), or anti-Vav1 MoAb (Upstate Biotechnology, Inc., Lake Placid, N.Y.).

T1 sequence (P62993 whole entry): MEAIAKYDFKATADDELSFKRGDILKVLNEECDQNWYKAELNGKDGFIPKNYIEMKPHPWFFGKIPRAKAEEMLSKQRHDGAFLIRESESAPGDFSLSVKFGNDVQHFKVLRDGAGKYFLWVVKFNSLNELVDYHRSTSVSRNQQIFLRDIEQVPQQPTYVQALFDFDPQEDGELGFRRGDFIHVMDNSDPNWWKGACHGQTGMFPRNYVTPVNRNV

B1: His-MIST-SH2 (poly-histidine tagged MIST SH2 domain, residues 320-443) (other, not shown: small tags and cut ends)
chain: QHNEWYIGEYSRQAVEEAFMKENKDGSFLVRDCSTKSKEEPYVLAVFYENKVYNVKIRFLERNQQFALGTGLRGDEKFDSVEDIIEHYKNFPIILIDGKDKTGVHRKQCHLTQPLPLTRHLLPL
notes: Recombinant, Sf9 cells; also called His-MIST-SH2 fusion protein
binding result: no binding
